Test results from publication PMC5564213.

Target: methemoglobin (UniProt P69905)
Assay: ELISA

Row | Substance | percent loss of hemoglobin binding against the untreated sample [%] | EC50 [nM]
1 | DEPC-treated wild-type ShuA (from UniProt P72412 1-660) (natural protein) | 60 | –
2 | DEPC-treated wild-type ShuA further treated with hydroxylamine (from UniProt P72412 1-660) (natural protein) | 40 | –
3 | purified ShuA Ala-L11 (non-phage-displayed) (from UniProt P72412 1-660) (natural protein) | – | 530
4 | purified ShuA H86A/H420A (non-phage-displayed) (natural protein) | – | 6900
5 | purified wild-type ShuA (non-phage-displayed) (from UniProt P72412) (natural protein; other documents disagree on this pair) | – | 530
